From paper PMC6457526, “Structure-based molecular characterization and regulatory mechanism of the LftR transcription factor from Listeria monocytogenes: Conformational flexibilities and a ligand-induced regulatory mechanism” (PLoS ONE, 2019)

Assays:
[1] = target: T1, LftR (Listeria monocytogenes, UniProt L8DXR9); experiment: fluorescence polarization assay; format: binding
T1 construct: full length, 108 residues, expressed in E. coli; homodimer

[2] = target: the molecule itself; experiment: SEC; Superdex 200 10/300, 20 mM HEPES pH 7.4, 150 mM NaCl; apparent molecular weight from gel filtration standards
[3] = target: LftR R53A (Listeria monocytogenes, UniProt Q8Y923 1-108, R53A); experiment: fluorescence polarization; FP: 28-mer OP-1 with 5' fluorescein, ex 485 nm / em 535 nm, single-site fit (Prism 5); buffer, salt, pH and temperature of FP and EMSA not given in the material; settings: protein: recombinant; tags: C-terminal His6; chain copies: 2; label: 5' fluorescein on top strand
[4] = target: LftR Y28A (Listeria monocytogenes, UniProt Q8Y923 1-108, Y28A); experiment: as above; settings: protein: recombinant; tags: C-terminal His6; chain copies: 2; label: 5' fluorescein on top strand
[5] = target: LftR wildtype (Listeria monocytogenes, UniProt Q8Y923 1-108); experiment: as above; settings: protein: recombinant; tags: C-terminal His6 (LftRCtH); chain copies: 2; label: 5' fluorescein on top strand
[6] = target: LftR K56A (Listeria monocytogenes, UniProt Q8Y923 1-108, K56A); experiment: as above; settings: protein: recombinant; tags: C-terminal His6; chain copies: 2; label: 5' fluorescein on top strand
[7] = target: LftR K9A (Listeria monocytogenes, UniProt Q8Y923 1-108, K9A); experiment: as above; settings: protein: recombinant; tags: C-terminal His6; chain copies: 2; label: 5' fluorescein on top strand
[8] = target: LftR L69A (Listeria monocytogenes, UniProt Q8Y923 1-108, L69A); experiment: as above; settings: protein: recombinant; tags: C-terminal His6; chain copies: 2; label: 5' fluorescein on top strand

CC[n+]1c(-c2ccccc2)c2cc(N)ccc2c2ccc(N)cc21 [ethidium bromide]
Kd [1]: 3700 ± 1170 nM

B1: LftR_(ΔNtH), tag-free LftR protein after thrombin removal of the N-terminal His6 tag (natural protein)
chain: GSAKDPMKGLTELLKGSLEGMILERISRGETYGYEITKYLNDLGFDEIVEGTVYTILVRLEKKGLVEIEKKKSELGPPRKFYTLSPAGEEELAIFWKRWDFIQGKIMQVKGGQA
notes: six additional vector-derived amino acids left at the N-terminus after thrombin cleavage (numbered -5 to 0 in the structure); LftR, PadR-2 subfamily transcription factor of Listeria monocytogenes, encoded by lmo0719; 108 residues; Expressed from a modified pET49b vector with N-terminal His6 tag and thrombin site; also called Listeria protein facilitating invasion/transcriptional regulator; …
stoichiometry N [2]: 2

B2: OP-1 28-mer dsDNA (FP) (dsDNA)
DNA 1: GTATTACTATATACTTGTACCTAGTAAC
DNA 2: GTTACTAGGTACAAGTATATAGTAATAC
Kd [3]: 40.1 ± 0.8 nM
Kd [4]: 89.6 ± 1.9 nM
Kd [5]: 6.2 ± 1.5 nM
Kd [6]: 28.7 ± 2.3 nM
Kd [7]: 197 ± 12.1 nM
Kd [8]: 62.6 ± 1.3 nM

B3: LftRCtH, LftR with a C-terminal His6 tag (natural protein)
chain: MKGLTELLKGSLEGMILERISRGETYGYEITKYLNDLGFDEIVEGTVYTILVRLEKKGLVEIEKKKSELGPPRKFYTLSPAGEEELAIFWKRWDFIQGKIMQVKGGQA
notes: LftR, PadR-2 subfamily transcription factor of Listeria monocytogenes, encoded by lmo0719; 108 residues; Cloned NdeI/XmaI into a modified pET49b vector with a C-terminal His6 tag; source: E. coli BL21 (DE3), purified (Ni-NTA); not shown: His6, C-terminal, kept
stoichiometry N [2]: 2
